# Results as given in publication PMC6048534.
# Columns and labels:
# [1] = target: CofB (minor pilin of CFA/III without its N-terminal 28 residues; homotrimer) (enterotoxigenic Escherichia coli (ETEC)); assay: AUC
# [2] = target: CofB (minor pilin of CFA/III without its N-terminal 28 residues; homotrimer) (enterotoxigenic Escherichia coli (ETEC)); assay: ITC
Substance,stoichiometry N (CofJ per three CofB molecules) [1],Kd [2] [µM],stoichiometry N [1]
CofJ (intact recombinant secreted protein of the CFA/III operon) (natural protein),1,0.14,–
CofJ (4–16) peptide (synthetic 13-residue peptide comprising CofJ residues 4–16),–,4.8,–
CofB (minor pilin of CFA/III without its N-terminal 28 residues; homotrimer) (domain or fragment),–,–,3
CofJ (1–24) peptide (synthesized peptide consisting of CofJ residues 1–24),–,8.8,–
